A short description of this data set: Radiolysis during labelling reaction, with and without EtOH as radiolytic scavenger. In kind it is physicochemical. The conditions noted are these: final product vial, radio-HPLC, single test. From the text: The considerably high percentage of radiolysis in the final product vial (FPV), caused by the presence of free radicals in solution (e.g., superoxide or hydroxyl radicals), impaired the establishment of the most favourable labelling conditions. Although not explicitly measured, for higher activity concentrations, the radiolysis percentage was anticipated to increase. Several compounds are known to act as radiolytic stabilizers and protect against radiolysis. Antioxidant compounds, such as ascorbic acid (AA) and gentisic acid (GA), are commonly known to protect against radiolysis and are mainly described in the literature for radiolabelling biomolecules with β^--emitting radionuclides (e.g., yttrium-90 and luthetium-177). Notwithstanding, these compounds might have a negative impact on copper-based radiopharmaceuticals, given the redox properties of copper. […] To evaluate the applicability of EtOH as a radiolytic scavenger for ^61Cu-based radiopharmaceuticals, a single test with and without EtOH was performed before establishing optimal labelling conditions. […] Compared with the labelling of [^61Cu]Cu-DOTA-NOC without EtOH (Figure 4A), it is evident that there is a significant decrease in the rate of radiolysis using the ethanol-based method (Figure 4B–D). […] Based on these findings, the use of EtOH was implemented in all further labelling formulations to act as a radiolytic stabilizing agent during the labelling reaction.
Figure 4 Representative chromatograms of [^61Cu]Cu-DOTA-NOC, [^61Cu]Cu-DOTA-TOC and [^61Cu]Cu-DOTA-TATE without (A) and with (B–D) using EtOH (maximum 5 vol% EtOH) during the labelling reaction. Two different HPLC methods were used, as described in Table 4. For a more practical comparative analysis between chromatograms, raw data was normalised as percentage of total radioactivity. Percentage of radiolysis is the ratio of radiolysis counts to total counts. TEXT PRINTED IN THE PICTURE: (A) [^61Cu]Cu-DOTA-NOC: Radiolysis: > 15% | (B) [^61Cu]Cu-DOTA-NOC: Radiolysis: < 5% | (C) [^61Cu]Cu-DOTA-TOC: Radiolysis: < 1% | (D) [^61Cu]Cu-DOTA-TATE: Radiolysis: < 1%
RCP was measured by HPLC (Agilent 1200 series HPLC system, Agilent Technologies, Santa Clara, CA, USA) equipped with a GABIStar NaI(Tl) radiometric detector (Raytest Isotopenmessgeraete GmbH, Straubenhardt, Germany) (20 μL sample volume). Two different methods (Table 4) were used, one for [^61Cu]Cu-DOTA-NOC (Method A) and a second to evaluate both [^61Cu]Cu-DOTA-TATE and [^61Cu]Cu-DOTA-TOC (Method B). An ACE 3 C18 150 × 3 mm HPLC column (ACE, Reading, UK) was used in both methods, and the flow was fixed at 0.6 mL/min.

Setting [1] is: labelling with EtOH up to 300 μL (maximum 5 vol% EtOH).

The record followed here is paper PMC9231368, “Production of GMP-Compliant Clinical Amounts of Copper-61 Radiopharmaceuticals from Liquid Targets” (Pharmaceuticals, 2022).

Positions of bridges follow the written chain, without caps; N, C: chain ends. Non-standard residues stand in square brackets, D forms with d. Residues, ends and D or L forms follow the SMILES beside them. *: point of attachment. DOTA = O=C(O)CN1CCN(CC(=O)O)CCN(CC(=O)*)CCN(CC(=O)O)CC1; 1Nal = N[C@@H](Cc1cccc2ccccc12)C(=O)O; Thr(ol) = C[C@@H](O)[C@H](N)CO

As to `C[C@@H](O)[C@@H]1NC(=O)[C@H](CCCCN)NC(=O)[C@@H](Cc2c[nH]c3ccccc23)NC(=O)[C@H](Cc2cccc3ccccc23)NC(=O)[C@@H](NC(=O)[C@@H](Cc2ccccc2)NC(=O)CN2CCN(CC(=O)O)CCN(CC(=O)O)CCN(CC(=O)O)CC2)CSSC[C@@H](C(=O)N[C@H](CO)[C@@H](C)O)NC1=O` [[^61Cu]Cu-DOTA-NOC, metal not drawn] ({DOTA}-[dF]C[1Nal][dW]KTC[Thr(ol)]; disulfide 2-7 (inferred)), the “Radiolysis (ratio of radiolysis counts to total counts)” value under setting [1] is on record as “less than 5%” and the “Radiolysis (ratio of radiolysis counts to total counts)” value (labelling without EtOH) is given as “more than 15%”.
On to `C[C@@H](O)[C@@H]1NC(=O)[C@H](CCCCN)NC(=O)[C@@H](Cc2c[nH]c3ccccc23)NC(=O)[C@H](Cc2ccc(O)cc2)NC(=O)[C@@H](NC(=O)[C@@H](Cc2ccccc2)NC(=O)CN2CCN(CC(=O)O)CCN(CC(=O)O)CCN(CC(=O)O)CC2)CSSC[C@@H](C(=O)N[C@H](CO)[C@@H](C)O)NC1=O` [[^61Cu]Cu-DOTA-TOC, metal not drawn], for which the “Radiolysis (ratio of radiolysis counts to total counts)” value under setting [1] is given as “less than 1%”.
On to `C[C@@H](O)[C@H](NC(=O)[C@@H]1CSSC[C@H](NC(=O)[C@@H](Cc2ccccc2)NC(=O)CN2CCN(CC(=O)O)CCN(CC(=O)O)CCN(CC(=O)O)CC2)C(=O)N[C@@H](Cc2ccc(O)cc2)C(=O)N[C@H](Cc2c[nH]c3ccccc23)C(=O)N[C@@H](CCCCN)C(=O)N[C@@H]([C@@H](C)O)C(=O)N1)C(=O)O` [[^61Cu]Cu-DOTA-TATE, metal not drawn], for which the “Radiolysis (ratio of radiolysis counts to total counts)” value under setting [1] is “less than 1%”.
